# Measured values from the RNAGym collection of RNA variant scans (doi:10.1073/pnas.2313332121).
# B1: TPR t1 (parent)
# chain: GACCAAUCUGCCCUCAGAGCUCGAGAACAUCUUCGGAUGCAGAGGAGGCAGGCUUCGGUGGCGCGAUAGCGCCAACGUCCUCAACCUCCAAUGCAUCCCACCACAUGAUGAUGCCUGAAGAGCCUUGGUUUUUUG
# Variants of: B1
# Test: polymerase ribozyme fitness, log enrichment relative to wild type (log ratio); higher = more active; in vitro selection for triplet polymerase activity
# Procedure, shortened: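 To select mutant libraries of each subunit of a heterodimeric triplet polymerase ribozyme, built by PCR and transcribed, each was annealed with a biotinylated primer, partner subunit and triplets, then incubated frozen at −7 °C. Extended constructs were gel-excised, captured on streptavidin beads and amplified by RT-PCR, in one round carried out in triplicate. Illumina sequencing of input and output libraries kept genotypes with ≥10 input reads and ≥1 read per output. Fitness is the base-2 logarithm of genotype enrichment relative to wild-type enrichment, from inverse-variance-weighted replicate averages.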
row,Variant,polymerase ribozyme fitness (log ratio)
1,GACCAAUCUGCCCUCAGAGCUCGAGAACAUCUUCGGAUGCAGAGGAGGCAGGCUUCGGUGGCGCGAUAGCGCCAACGUCCUCAACCUCCAAUGCAUCCCACCACAUGAUGAUGCCAGAAGGGCCUUGGUUUUUUG,0.178
2,GACCAAUCUGUCCUAAGAGCUCGAGAACAUCUUCGGAUGCAGAGGAGGCAGGCUUUGGUGGCGCGAUAGCGCCAACGUCCUCAACCUCCAAUGCAUCCCACCACAUGAUGAUGCCUGAAGAGCCUUGGUUUUUUG,-1.47
3,GACCAAUCUGCCCUCAGAGCUCGAGAACAUCCUCGGAUGCAGAGGAGGCAGGCUUUGGUGGCGCGAUAGCGCCAACGUCCUCAACCUCCAAUGCAUCCCACCACAUGAUGAUGCCUGAAGAGCCUUGGUUUUUUG,0.1
4,GACCAUUCUUCUCUGAGAGCUCGAGAACAUCUUCGGAUGCAGAGGAGGCAGGCUUCGGUGGCGCGAUAGCGGCAACGUCCUCAACAUCCAAUGCAUCCCACCACAUGAUGAUGCCUGAAGAGCCUUGGUUUUUUG,-3.18
5,GACCAAUCUGCCCUCAGAGCUCGAGAACAUCUUCGGAUGCAGAGGAGUCAGGCUUCGGUGGCGCGAUAGCGCCAACGUCCUCAACCUCAAAUGCAUCCCACCACAUGAUGAUGCCUGAAGAGCCUUGGUAUUUUG,-2.33
6,GACCAAUCUGCCCUCAGAGCUCGAGAACAUCUUCGGAUGCAGAGGAGGCAGGCUUGGGUGGCGCGAUGGCGCUAACGUCCUCAACCUCCAAUGCGUCCCACCACAUGAUGAUGCCUGAAGAGCCUUGGUUUUUUG,-3.3
7,GACCAAUCUGCCCUCAGAGCUCGAGAACAUCUUCGGAUGCAGAGAAGGCAGGCAUCGGUGCCGCGAUAGCGCCAACGUCCUCAACCUCCAAUGCAUCCCACCACAUGAUGAUGCCUGAAGAGCCUUGGUUUUUUG,-0.932
8,GACCAAUCUGCCCUCAGAGCUCGAGAACAUCUUCGGAUUCAGAGGAGGCAGGCUUCGGUGGCGCGAUAUCGCAAACGUCCUCAACCUCCAAUGCAUCCCACCACAUGAUGAUGCCUGAAGAGCUUUGGUUUUUUG,0.671
9,GACCAAUCUGCUCUCAGAGCUCGAGAACAUCUUCGGAUGCAGAGGAGGAAGGCUUCGGUGGCGCGAUAGCGCCAACGUCCUCAACCUCCAAUGCACCCCACCACAUGAUGAUGCCUGAAGAGCCUUGGUUUUUUG,-0.405
10,GACCAAUCUGCCCUCAGAGCUCGAGAACAUCUUCGGAUGCAGAGGAGGCAGGCUUCGGUGGCGCGAUAGCGCCAACGUCCUCAACCUCAAAUACAUCCCACCACAUGAUGAUGCCUGAAGAGCCUUGGUUUUUUG,-2.99
11,GACCAAUCUGCCCUCAGAGCUCGAGAACAUCUUCGGAUGCAGAGGAGUCAGGCUUCGGUGUCGCGAUAGCGCCAACGUCCUCAACCUUCAAUGCAUCCCACCACAUGAUAAUGCCUGAAGAGCCUUGGUUUUUUG,-1.73
12,GACCAAUCUGCCCUCAGAGCUCGAGAACAUCUUCGGAUGCAGAGGUGGCAGGCUUCGGUGGCGCGAUAGCGCCAACGUCCUCAACCUCCAAUGCAUCCCACCACAUGAUGAUGCCUGAAGAACCUUGGUUUUUUG,-2.16
13,GACCAAUCUGCCCUCAGAGCUCGAGAACAUCUUCGGAUGCAGAGGAGGCUGGCUUCGGUGGCGCGAUAGCGCCAACGUGCUCAACCUCCAAUGCAUCCCACCACAUGAUAAUGCCUGAAGACCCUUGGUUUUUUG,-6.04
14,GACCAAUCUGCCCUCAGAGCUCGAGAACAUCUUCGUAUGCAGAGGAGGCAGGCUUCGGUGGCGCGAUAGGGCCAACGUCCUCAACCUCUAAUGCAUCCCACCACAUGAUGAUGCCUGAAGAGCCUUGGUUUUUUG,-5.64
15,GACCAAUCUGCCCUCGGAGCUCGAGAACAUCUUCGGAUGCAGAGGAGGCAGGCUUCGGUGGCGCGAUAGAGCCAACGUCCUCAACCUCCAAUGCCUCCCACCACAUGAUGAUGCCUGAAGAGCCUUGGUUUUUUG,-4.17
16,GACCAAUCUGCCCUCAGAGCUCGAGAACAUCUUCGGAUGCAGAGGAGGCAGGCUUCGGUGGCGCGAUAGCGCAAACGUCCACAACCUCCGAUGCAUCCCACCACAUGAUGAUGCCUGAAGAGCCUUGGUUUUUUG,-0.106
17,GACCAAUCUGCCCUCAGAGCUCGAGAACAUCUUCGGAUGCAGCGGAGGCAGGCUUCGGUGGCGCGAUACCGCCAACGUCCUCAACCUCCAAUGCAUCCCACCACAUGAUGAUGCCUGAAGAGCCUUGGUUUUUUG,-4.47
18,GACCAAUCUGCCCUCAGAGCUCGAGAACAGCUUCGGAUGCAGCGGAGGCAGGCUUCGGUGGCGCGAUAGCGCCAACGUCCUCAACCUCCAAUGCAUCCCAACACACGAUGAUGCUUGAAGAGCCUUGGUUUAUUG,-7.22
19,GACCAAGCACCCCUCAGGGCUCGAGAACCUCUUCGGAUGCAGAGGAGGCAGGCUUCGGUGGCGCGAUAGCGCCAACGUCCUCAACCUCCAAUGCAUCCCACCACAUGAUGAUGCCUGAAGAGCCUUGGUUUUUUG,-4.02
20,GACCAAUAUGCCCUCAGAGCUCGAGAACAUCUUCGGAUGCAGAGCAGGCAGGCUUCGGUGGCGCGAUAGCGCCAACGUCCUCAACCUCCAAUGCAUCCCACCACAUGAUGAUGCCUGAAGAGCCUUGGUUUUUUG,0.366
21,GACCAAUCUGCCCUCAGAGCUCGAGAACAUCUUCGGAUGCAGAGGAGGCAGGCUUCGGUGGCGCGAUAGCGCCAACGUCAUCAACCUCCAAUGCUUCCCACCACAUGAUGAUGCCUGAAAAGCCUUGGUGUUUUG,-3.52
